Consider one molecule from patent US20260286408A1, “PROCESS FOR MAKING FLAVANONE DERIVATIVES” (priority 2022, published 2026).

A short description of the data set: Biotransformation of flavanones with whole cells of E. coli BL21 (DE3)-AthF3H. Format: biochemical. As to conditions: whole cells OD10, 1 g/L substrate, pH 7, 30° C., 2 h, all substrates. On the procedure:
The gene (GenBank: U33932) encoding the flavanone-3-hydroxylase (F3H) from Arabidopsis thaliana was ordered codon-optimized for E. coli. E. coli BL21 (DE3) was transformed with the resulting construct. For the precultures LB medium containing kanamycin (50 μg/mL) was inoculated with E. coli BL21 (DE3) strains harboring the constructs and incubated at 37° C. and 200 rpm over-night. The preculture was used to inoculate the main culture of 400 mL LB medium containing kanamycin (50 μg/mL), which was incubated at 37° C. until the optical density at 600 nm (OD600) reached approximately 0.8. Expression of AthF3H was induced by 0.1 mM IPTG (isopropyl-D-thiogalactopyranoside) and the cultures were shaken at 20-25° C. for 20 h. The cells were harvested by centrifugation, and then resuspended in 100 mM potassium phosphate buffer (KPi, pH 7) to an OD of 50.
Biotransformations were carried out with whole cells of E. coli BL21 (DE3)-AthF3H at OD10 in a total volume of 1 mL in 100 mM potassium phosphate buffer (KPi, pH 7) containing 10% DMSO, 1 g/L of eriodictyol, hesperetin, homoeriodictyol, pinocembrin, liquiritigenin or 5-deoxyeriodictyol, 10 mM α-ketoglutarate, 10 mM ascorbic acid and 0.25 mM FeSO4 at 30° C. and 1000 rpm for 2 h. […]

B1: AthF3H: flavanone-3-hydroxylase (F3H) from Arabidopsis thaliana (GenBank: U33932), expressed in E. coli BL21 (DE3) (protein, UniProt Q9S818 1-358, looked up)
Naringenin,2-oxoglutarate …: MAPGTLTELAGESKLNSKFVRDEDERPKVAYNVFSDEIPVISLAGIDDVDGKRGEICRQIVEACENWGIFQVVDHGVDTNLVADMTRLARDFFALPPEDKLRFDMSGGKKGGFIVSSHLQGEAVQDWREIVTYFSYPVRNRDYSRWPDKPEGWVKVTEEYSERLMSLACKLLEVLSEAMGLEKESLTNACVDMDQKIVVNYYPKCPQPDLTLGLKRHTDPGTITLLLQDQVGGLQATRDNGKTWITVQPVEGAFVVNLGDHGHFLSNGRFKNADHQAVVNSNSSRLSIATFQNPAPDATVYPLKVREGEKAILEEPITFAEMYKRKMGRDLELARLKKLAKEERDHKEVDKPVDQIFA
On to B1, for which the “conversion of flavanone substrates by F3H” value is “full conversion of the available (S)-enantiomer”.
